Experiment: soluble on expression in E. coli; label from the status in PepcDB or PDB records

Sequence | soluble on expression in E. coli
MDVSQWEQFAKHRSAVIRDYGMWIGLMDNNMEPIVDMPAPVSIDAPITRMTPSSCKAVFKTRVDGHIHPMVDYLIAENLAKVDEQGQLIAAAQDAVFLAIEVAQGIRNVYKGVFTVALGDQESPTLLEFNGVCEIQWTLGALPCPSAPYSWTGKWVDLNQDWAGKWSKTRTMADIKVAEVADGFTLSGAADTTIGKLISQSLQAINTMLKSKGRSLPIAVKPVTSNPTSPQLVIRPTDRFIWDEISDLALAAGVTVKCKTWWPSDPPVPGLDLKEPIVVIEITQEE | not soluble
MGSDKIHHHHHHMKFVEIRDLQVTYMGKDKPSIVVDKLDIEEGESVLITGRSGSGKSTLVSVINGVIPHLINAEIKGEVRVFGFDVKSTPIHEISKYVGTLLQDPDTQAFNYTIIDEVAFGVENYMISRDEMIERVEESMKIYGISHLRDREINTLSGGELQRTILASVLAMRPKALILDEPTSNIDPQGTREILELVKTFRSEGISLVLVEHKIERVLPFVDRIIVVEEGKIAVDVRKDEIVDKADFLYSLGLEIPDYMLFLKKNGFRKIDYEYLRKTYTYRPPSRIGGKGEALYASVKVKTKNGIYLINTKISLKQGTITALMGKNGSGKTTLLKVIVGLIDKKRLIVEEEKVIVNGVDLSKTKLVERGKFIAYLPQFFDVMFIKRTVEDEIKFSMKNRGTYDEKRLGEVLKMFSLDAYRKEDPLVLSMGQRRRVAMASVLAGGAKVILMDEPTSGQDWYHRQILGKELLELRDKGYTILVVTHDSRFVDRFADYLLVMNEGKIVLEGKPEEVFIKSLRHGIEPPLEYELGGLIKNEHFS | not soluble
MRILEKNHGKSRVRFNCTHPIKPAAWVLAANVSLLGCAYAATDENNSQKKERENNPANTTITVTASPLRHAGVTEDSGSYNTSSMSTATGLNISARETPQSVSVLTKQRMRDQNLNSVESAVNNITGISVRQFDSDRFGFTSRGMAVNNVMRDGVATFYDTRFNYGDNTLDTDMFDRIEVVRGAAGLMAGPGNPSAVINLVRKRPTQDFRGSVSAGVGSWEKWRTALDISGPLNSEGSVRGRFVTAYEDKNSFVNRYDQSKNPFYGILEIDVTPNTLFTFGADTQRTLTRGGMFGGLPLFNSAGGRTNYAQSATTASDWASAETRTQTLFSSLQHNFDNGWNIKGTFTFDNDKLRQDVMWPTGYPDPQTNIGMRPGSLSLIDGARRQQNYDIQVNGQYSLFGRQHQLGLGWNRQRQNIDNDYYLATCNATRTCPDLGDFTQPGWQYPKPVWSDKRAYGSKGRSDQSSQYVVTQLSLIDPLTLILGGRLTTWETRGDNFGTPQNARYKNEFVPYSGLTYDINRDLSVYTSYTEIFNPENRRDRNNTLLAPVSGQNYEAGLKGVAFDNSLDYSLAVFEIRQNNMPVPDTTAPRLPDNSQPYFAVDGTKTRGFEAEVSGKMTEDWNISAGYTQYNVKLPSSNTQTPVTPVTPRKVLKLFTTYTLPGQLSDLTLGGGVNWQSQIARNLSSPIGIQQIGQGSFAIYSLMSRYQFTPQLSLTVNLDNLFNQHYYTQIGQYNQYLLGAPRNVDATVRYTF | not soluble
MAHHHHHHMHQLRTFNYVASELGHDEPVLHAVFVTHRCLPPDPPEVNFTTAIPQTVTAASRRTSSDDASIGAAVHVEKTVVLSVEDTLAAPLEVALTVEQELAQLSKKLDAWKVQRLADLQARGGERSPSRLAQMEAAMERRLALRRIEEQDRAQKRVDALLSYLGPRIDKQLQLVAREHDGEEALSSSYARVETTSDVKDSACADKSAASAATPSPPSPRARILCDQQYFVKRQEIALEERGARQAVLRNMWDARRLAHLVEDEVSFRHSIEAREVVWRDRVHSELRASVEMDHV | not soluble
SLDWQKGMNSAIDYIEKNLTGNVNVRTAAGFVGCSTWEFQRIFSFLTHIPLSEYIRQRKLTLAAQEIKDNDVKIIDIALKYGYESPAAFSRAFNKLFGIAPSSVRNTENNLKTYPRITFEKIENERLIKMSRFSERGYVVRENGPVYFTKDMDKTVKWFEEILGWSGDIVARDDEGFGDYGCVFDYPSEVAVAHLTPFRGFHLFKGEPIKGVAGFMMIEGIDALHKYVKENGWDQISDIYTQPWGARECSITTTDGCILRFFESIQEG | soluble
GMTTQTATDFMEIVKGRRSIRNYDTNVKISKEEMTQILEEATLAPSSVNMQPWRFLVIDSEEGKATLAPLAKFNQVQVETSSAVIAVFGDMKAIDQLENIYDTAVEKGLMPQEVRDRQVPAIQGMYENVPASALKDSILIDSGLVSMQLMLVARAHGYDTNPIGGYEKDQIAEAFGMEKDRYVPVMLLSIGKAVDAGYPSVRLPINDIADWK | soluble
MVLLKEYRVILPVSVDEYQVGQLYSVAEASKNETGGGEGVEVLVNEPYEKDDGEKGQYTHKIYHLQSKVPTFVRMLAPEGALNIHEKAWNAYPYCRTVITNEYMKEDFLIKIETWHKPDLGTQENVHKLEPEAWKHVEAIYIDIADRSQVLSKDYKAEEDPAKFKSIKTGRGPLGPNWKQELVNQKDCPYMCAYKLVTVKFKWWGLQNKVENFIHKQEKRLFTNFHRQLFCWLDKWVDLTMDDIRRMEEETKRQLDEMRQKDPVKGMTADD | soluble
MSLTASAPRRPAAFLDRDGVINYNDHYVGTRERLRWMPGIAAAIRQLNAAGYYVFIITNQSGVARGMFSEDDVRALHRWMLDELNTQGARIDDVRFCPHHVEGTLDAYRVACEHRKPGPGMILDLAKTWPVDMTRSFVIGDSASDVEAAKAAGIPGFRFEGEDIDVFVKQVLIEMQRAAVSNEGHHHHHH | soluble
MSAPSRTVLRELTATKYVANYTDEYQLETARAGCSALPPQPNINHDAIIEGHGEDVELVEDKNYRSLHRIDETPKLVDKKPSKAIIRDEAVKVLRDIQTMPIENLRLKRYDFFSQRWFNTTRESEKALVEHVLLHPNQRPHYFAAQCRMLSAEDISSLILTSLLAEPKETGQNVVRFAIQAKTAMPFQQLFAILEKLEMEIEGFQMTDSFVVATLIRSQSKSTTTRRLRTTNCREYGNLEPGLDSQGRLMASTASITCSIRGKRHVETRIVYNNNSSARDPFRRYRYIELEQTVKCMNRRVQIVEEPVEFHEFEVENDMVSLRNGMVLVDDLISFLETFELDEE | not soluble
IQQHSTDIETPTGTMRTYVYRPQASGKFPTIIFYSEIFQQTAPIARTAALMAGHGFVVLVPEVFHELNPIGTVLGYDDAGKDKGNQDKWAKPLEHHDSDTQALVNFIQQQDYCSGKIGTMGVCIGGHLAYRAALNKSVLAAACLYATDIHSGDLPSAEGNDSLTRTKDISAELMMIWGKQDPHIPDEGRMMIHKNLIASGNLFSWHEFNASHAFMRDEGERYDPQLALRVYGMSVELFNRTL | not soluble
MGSSHHHHHHSSGLVPRGSHMQIHTLTIRHGRSDPETVRSLLGQDQVLVVDYDAIHHHVINTAEYTYLSHMFDIIVLNLSGKLNDIIDTIMAGAAMVVIDPSVQEKRLREFFDITENIAMPYRGDGHSEAFSQLGGQYFVTDREIGYPFKLAYSTTDISGDRYIRVLDFPQDISDMIFERA | soluble
GPGSMTIDAVSPLFADISREYGAAFDAAIARNVADALAEDVGSGDQTGRLVPDGAPRRARVIVREDAVLCGVPWFDAVVRAVDPSIEVDWRHREGDRMSADSTVCELRGPARALLTAERNALNFLQLLSGVASATRQYVDRIADTRARILDTRKTLPGLRLAQKYAVRVGGGANQRLALYAGILIKENHIAAAGGVGEALDAAFALNAEVPVQIEVETLDQLRTALAHGARSVLLDNFTLDMMRDAVRVTEGRAVLEVSGGVNFDTVRAIAETGVDRISIGALTKDVRATDYSMRIVE | soluble
GPGSMNCDQSPEAPCIVYICKLIDTQYLVGRVVGSVENHDGAFIGFGRVYSGRLRAGQPVYVHSDGVVVEATVGSVYLFRGAGLEETSEVSAGFLCGVGGLTPCITKYATISSVPNMPPFKPLVLQSTSIVRLSVFPKDPRSLQELERGLRLLYKVDPQVEVSMLPTGEHVIGTAGEVHAERCLKDLIDTFAQVEVVASEPLVSFRETIVSNLSAKPKPHTASLMDGAFHVTLQARPLPAEVLELIKDDGKNSGNNPQLLRQAVAALAEHRRFSADVKNGVVSSGPSRLGFLGAVLLANFDGTADPVACWATLQDWKESVVAGFQAACESGPMAQEPLYGVAFVVTNIFVDADSDISGGMVLPSVREACRAAMKLHPRRLVEPVYECTVYSSGFTQGKIYASLSRRRSEIVEEVPNEGSDLFYIRCWLPAVEAFGLQDELRVQTQGASTAQLQMSHWEVIDADPYFVPTTKEEFEEHGAEVATKNIAEQLLERIMRRKGLYRERVVENAEKQKFSLKGA | not soluble
MGSDKIHHHHHHMRVCAEHHVINTATGPMGTRVYRPAGPGSYPAILFYSEIFQETAPISRMATVLAGHGFVVLVPEIFHELNPAGTVLGYDDMGKDKGNSDKATKPLESHDSDTAAMVDFVRRQPWCQGKIGAMGVCIGGHLAYRAAVNPDVAAAFCLYATDIHSGTIPSQPGNDSLSRTRDIRGELYMVFGKQDPHVPGEGRRLIQHNLEQHGVNHSWLEVNAEHAFMRDGDARHDPALALVMYQSAIALFQRTL | not soluble
AHQYGVKSYIGIPRSYSHDRTDFMQSEQAEILYYDGKYEETVEFIRDFSKDNGLYDASPGSANSSIDKMMYATIAFEIYEALLTVPSYVIVPVGNGTTLAGIYHGFRRMYDEGVIDHLPRMVGVSTSGGNPIVDSWRHGYSRVVDLNPEEIRETSINEPLVSYRSFDGQDALSAIRETHGRAMYVSDEEMVYYSNLIYSAEGLNPLPASASAVAAIGHLKVKQDETVVSVITGRQI | not soluble
AVPKIRIAVPSKGRISEPAIRLLENAGVGLKDTVNRKLFSKTQHPQIEVMFSRAADIPEFVADGAADLGITGYDLIVERGSDVEILEDLKYGRASLVLAAPEDSTIRGPEDIPRGAVIATEFPGITENYLREHGIDAEVVELTGSTEIAPFIGVADLITDLSSTGTTLRMNHLRVIDTILESSVKLIANRESYATKSGIIEELRTGIRGVIDAEGKRLVMLNIDRKNLDRVRALMPGMTGPTVSEVLSDNGVVAVHAVVDEKEVFNLINRLKAVGARDILVVPIERIIP | soluble
MGHHHHHHSHMGKWHVGGRRGSPRQWGATARGRDLEAVRRGGCGSVGRRRQRRRRRRRRMRRMRRMWATQGLAVRVALSVLPGSRALRPGDCEVCISYLGRFYQDLKDRDVTFSPATIENELIKFCREARGKENRLCYYIGATDDAATKIINEVSKPLAHHIPVEKICEKLKKKDSQICELKYDKQIDLSTVDLKKLRVKELKKILDDWGETCKGCAEKSDYIRKINELMPKYAPKAASAPTDL | not soluble
MSLSLREVSQLLCQLKVLDQKITKVFEEQVGLSLTRYELLMILKERQPCLQTEIQEHLKIDSGAVTRHLKILEEKQYVTRQRNPENNREVLVHLTEKAQQELQQCTAKQQTVTEIIPSTFTKDDCRQLKELLTKLDQSITTKEV | not soluble
MIKNGTLKPGDKLLPVHQLAEQFQVGRSAVREALSALRAMGLIEMKQGEGTYVKNFDSSSLTKSLNNRLLMKKEDILNLLEVRKVLEVGAVRVAAAKRTEDNLQNMKHWLDEMAKSIGDEKAGEKADFQFHMGIAESSHNNILLELMNHVSEMIAETIGESRRIILYGEQTTSERLIEEHQVIYDAVLKQDVELAQQAMLDHLTNVEHIVTGKNDINS | not soluble
MKNKTKNATLKSIIDVILYENPSTQDEIAERLGITRRYVTKLLQPLIREGVVRRAYIVDIKKFDEFPELFGEEVTSREYAGSFFIKEILRDMAQHVCKQLNKSFRSLEEYDEDLANEALKMDYITNTMHEKVRSSVDTAIAMNPYSEFSKTMAFTEIAYDLERIGDHSAIIANFAIKESYEVDPAMMEYLRDMFSIAVEMVKTAMDAFLNEKLELKATLMSLEDDIHRIQKNALNCVATQMAETPFEDKERSTYYISLSRVVKTLERIADISIEIFDTAGEYYRNIPRTTTPERFRRREREES | soluble

Source: the DeepSol protein solubility set
